# Reference: patent US20190338048A1
# Several values for one entry are separate records, joined by “and”; a condition that tells them apart may be missing. Equal values may be shown once.
# Experiments:
# [1] = molecular target: Recombinant human IL-17A (human) (UniProt Q16552); assay: SPR, ProteOn XPR36
# [2] = molecular target: Recombinant human IL-17A (human) (UniProt Q16552); assay: SPR
# [3] = molecular target: Recombinant human IL-17A (human) (UniProt Q16552); assay: SPR as for KD
# [4] = molecular target: Recombinant human IL-17A (human) (UniProt Q16552); assay: SPR, IL-17A immobilised, Fab as analyte
# [5] = molecular target: CR8071 lambda light chain E124Q_T131R (L1 of designs 3971, 3972 and 3987, system C); assay: SMCA: H1, L1, H2, L2 co-expressed, protein A, LC-MS
# [6] = molecular target: CR8071 lambda light chain L1 E124Q_T131R (designs 3971 and 3972, System C); assay: as above
# [7] = molecular target: CR8071 lambda light chain L1 with E124Q_T131K; assay: SMCA System C: four chains co-expressed, protein A, LC-MS
# Chain of Recombinant human IL-17A (human) (Q16552 20-155 limits assumed): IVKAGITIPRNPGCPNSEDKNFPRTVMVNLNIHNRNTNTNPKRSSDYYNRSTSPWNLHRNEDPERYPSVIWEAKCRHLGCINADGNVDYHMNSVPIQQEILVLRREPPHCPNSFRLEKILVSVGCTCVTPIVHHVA
substance,measurement,setting,value
CAT-2200 Fab heterodimer H1L1 with H1 K145T_V177D_S188D and L1 S176K_Y178R,"Change in KD of H1L1 Fab vs wild type, -(log(KD design)-log(KD wt))",[1],0.01
same,Kd,[1],0.27 nM
CAT-2200 Fab heterodimer H1L1 with H1 K145T_V177T_S188E and L1 Y178K,"Change in KD of H1L1 Fab vs wild type, -(log(KD design)-log(KD wt))",[1],0.11
same,Kd,[1],0.21 nM
"CAT-2200 Fab heterodimer, H1 V177I_S188K / L1 V133I_S176D_Y178E",Change in KD of H1L1 Fab vs wild type,[2],0.08
same,Kd,[1],0.23 nM
"CAT-2200 Fab heterodimer, H1 V177I_S188K / L1 V133L_S176D_Y178E",Change in KD of H1L1 Fab vs wild type,[2],0.08
same,Kd,[1],0.22 nM
"CAT-2200 Fab, H1 K145T_V177T_S188E / L1 Y178K","Change in KD of H1L1 Fab vs wild type, -(log(KD design)-log(KD wt))",[3],0.11 log units
same,Kd,[1],0.21 nM
"CAT-2200 Fab, H1 L124E_V190D / L1 L135K_Y178F","Change in KD of H1L1 Fab vs wild type, -(log(KD design)-log(KD wt))",[3],-3.56 log units
"CAT-2200 Fab, H1 L124E_V190D / L1 V133I_L135K","Change in KD of H1L1 Fab vs wild type, -(log(KD design)-log(KD wt))",[3],-3.56 log units
"CAT-2200 Fab, H1 L124E_V190D / L1 V133I_L135K_Y178F","Change in KD of H1L1 Fab vs wild type, -(log(KD design)-log(KD wt))",[3],-3.56 log units
"CAT-2200 Fab, H1 L143D_K145T / L1 E124Q_T131K","Change in KD of H1L1 Fab vs wild type, -(log(KD design)-log(KD wt))",[3],0.1 log units
same,Kd,[1],0.22 nM
CAT-2200 designed Fab heterodimer H1L1: H1 L143E_K145T_Q179E / L1 E124Q_T131R,Change in KD of H1L1 Fab vs wild type,[2],-0.14
same,Kd,[4],0.29 nM
CAT-2200 designed Fab heterodimer H1L1: H1 L143K / L1 K129T_V133D,Change in KD of H1L1 Fab vs wild type,[2],-0.09
same,Kd,[4],0.26 nM
CAT-2200 designed Fab heterodimer H1L1: H1 Q179K / L1 K129T_S180E,Change in KD of H1L1 Fab vs wild type,[2],-0.056
same,Kd,[4],0.24 nM
CAT-2200 designed Fab heterodimer H1L1: H1 S186R / L1 K129T_S180E,Change in KD of H1L1 Fab vs wild type,[2],-0.088
same,Kd,[4],0.26 nM
"CAT-2200 designed Fab heterodimer, H1 S186R / L1 K129T_S180E","Change in KD of H1L1 Fab vs wild type, -(log(KD design)-log(KD wt))",[2],-0.088
same,Kd,[2],0.26 nM
"CAT-2200 designed Fab, H1 A125R_S186R / L1 S122D_K129T_S180E",Change in KD of H1L1 Fab vs wild type,[2],-0.0041
same,Kd,[2],0.21 nM
"CR8071 heavy chain A139W_L143D_K145T (H1 of designs 3972 and 3987, system C)",% H1L1 Pairing,[5],92.8% and 99.2%
same,Change in % H1L1 Pairing with respect to wild type,[5],44.4% and 50.8%
"CR8071 heavy chain H1 A139W_L143D_K145T (design 3972, System C)",% H1L1 Pairing,[6],92.8%
same,Change in % H1L1 Pairing with respect to wild type,[6],44.4%
"CR8071 heavy chain H1 L143D_K145T (design 3971, System C)",% H1L1 Pairing,[6],89%
same,Change in % H1L1 Pairing with respect to wild type,[6],40.6%
CR8071 heavy chain H1 with L143D_K145T,% H1L1 Pairing,[7],79.7%
same,Change in % H1L1 Pairing with respect to wild type,[7],11.6%
CR8071 heavy chain H1 with L143E_K145T_Q179E,% H1L1 Pairing,[7],84.7%
same,Change in % H1L1 Pairing with respect to wild type,[7],36.3%
"CR8071 heavy chain L143D_K145T (H1 of design 3971, system C)",% H1L1 Pairing,[5],89%
same,Change in % H1L1 Pairing with respect to wild type,[5],40.6%
